Experimental data taken from IntAct's records for PubMed 9819391.

How the values were obtained:
src_chick SRC [1] = molecular target: src_chick SRC (UniProt P00523)
crk_human CRK = crk_human CRK (UniProt P46108)
src_chick SRC [2] = molecular target: src_chick SRC (UniProt P00523); remark: listed apart in the source

Chain of crk_human CRK (P46108 whole entry): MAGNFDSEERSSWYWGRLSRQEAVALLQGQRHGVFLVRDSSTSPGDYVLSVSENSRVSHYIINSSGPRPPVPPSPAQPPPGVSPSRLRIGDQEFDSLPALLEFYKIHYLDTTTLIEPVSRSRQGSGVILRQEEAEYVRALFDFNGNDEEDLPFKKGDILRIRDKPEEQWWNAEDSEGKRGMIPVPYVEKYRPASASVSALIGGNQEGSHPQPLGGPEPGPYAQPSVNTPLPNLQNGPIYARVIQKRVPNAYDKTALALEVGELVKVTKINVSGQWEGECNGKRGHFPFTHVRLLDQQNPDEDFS
Chain of Arf-GAP with SH3 domain, ANK repeat and PH domain-containing protein 1 (Mus musculus), Q9QWY8-1 R811A (Q9QWY8 whole entry R811A, the tested form may be a part): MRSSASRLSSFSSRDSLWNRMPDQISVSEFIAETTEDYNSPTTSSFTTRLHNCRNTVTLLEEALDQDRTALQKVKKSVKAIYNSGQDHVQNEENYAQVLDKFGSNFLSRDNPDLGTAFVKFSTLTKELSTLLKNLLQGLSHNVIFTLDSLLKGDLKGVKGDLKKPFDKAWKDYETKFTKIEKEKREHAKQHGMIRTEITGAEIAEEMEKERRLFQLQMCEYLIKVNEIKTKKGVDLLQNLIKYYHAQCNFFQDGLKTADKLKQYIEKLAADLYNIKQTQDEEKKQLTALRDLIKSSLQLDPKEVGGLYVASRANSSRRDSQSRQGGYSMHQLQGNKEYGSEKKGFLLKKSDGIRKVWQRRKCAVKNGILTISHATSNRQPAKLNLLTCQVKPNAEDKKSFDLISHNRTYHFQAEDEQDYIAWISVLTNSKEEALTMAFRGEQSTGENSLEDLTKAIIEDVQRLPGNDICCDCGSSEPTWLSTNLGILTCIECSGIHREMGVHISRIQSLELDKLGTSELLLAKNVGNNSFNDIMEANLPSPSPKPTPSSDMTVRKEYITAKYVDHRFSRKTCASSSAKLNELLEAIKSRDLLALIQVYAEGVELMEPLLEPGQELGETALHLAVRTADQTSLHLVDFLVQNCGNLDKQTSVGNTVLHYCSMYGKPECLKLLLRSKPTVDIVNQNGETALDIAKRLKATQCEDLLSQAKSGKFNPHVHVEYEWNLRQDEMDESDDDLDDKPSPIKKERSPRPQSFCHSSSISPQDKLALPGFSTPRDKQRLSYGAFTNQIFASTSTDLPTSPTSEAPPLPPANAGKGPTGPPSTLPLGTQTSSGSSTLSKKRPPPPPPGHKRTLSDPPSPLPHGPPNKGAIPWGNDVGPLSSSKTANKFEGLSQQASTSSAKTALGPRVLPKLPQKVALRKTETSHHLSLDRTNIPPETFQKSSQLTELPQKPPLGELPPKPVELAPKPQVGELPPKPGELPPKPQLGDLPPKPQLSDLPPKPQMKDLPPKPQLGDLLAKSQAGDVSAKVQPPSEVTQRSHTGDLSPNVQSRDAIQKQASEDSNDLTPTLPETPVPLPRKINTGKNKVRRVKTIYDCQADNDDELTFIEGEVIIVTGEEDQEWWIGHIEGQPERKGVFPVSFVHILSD
Chain of Arf-GAP with SH3 domain, ANK repeat and PH domain-containing protein 1 (Mus musculus), Q9QWY8-1 P910A;P913A (Q9QWY8 whole entry P910A/P913A, the tested form may be a part): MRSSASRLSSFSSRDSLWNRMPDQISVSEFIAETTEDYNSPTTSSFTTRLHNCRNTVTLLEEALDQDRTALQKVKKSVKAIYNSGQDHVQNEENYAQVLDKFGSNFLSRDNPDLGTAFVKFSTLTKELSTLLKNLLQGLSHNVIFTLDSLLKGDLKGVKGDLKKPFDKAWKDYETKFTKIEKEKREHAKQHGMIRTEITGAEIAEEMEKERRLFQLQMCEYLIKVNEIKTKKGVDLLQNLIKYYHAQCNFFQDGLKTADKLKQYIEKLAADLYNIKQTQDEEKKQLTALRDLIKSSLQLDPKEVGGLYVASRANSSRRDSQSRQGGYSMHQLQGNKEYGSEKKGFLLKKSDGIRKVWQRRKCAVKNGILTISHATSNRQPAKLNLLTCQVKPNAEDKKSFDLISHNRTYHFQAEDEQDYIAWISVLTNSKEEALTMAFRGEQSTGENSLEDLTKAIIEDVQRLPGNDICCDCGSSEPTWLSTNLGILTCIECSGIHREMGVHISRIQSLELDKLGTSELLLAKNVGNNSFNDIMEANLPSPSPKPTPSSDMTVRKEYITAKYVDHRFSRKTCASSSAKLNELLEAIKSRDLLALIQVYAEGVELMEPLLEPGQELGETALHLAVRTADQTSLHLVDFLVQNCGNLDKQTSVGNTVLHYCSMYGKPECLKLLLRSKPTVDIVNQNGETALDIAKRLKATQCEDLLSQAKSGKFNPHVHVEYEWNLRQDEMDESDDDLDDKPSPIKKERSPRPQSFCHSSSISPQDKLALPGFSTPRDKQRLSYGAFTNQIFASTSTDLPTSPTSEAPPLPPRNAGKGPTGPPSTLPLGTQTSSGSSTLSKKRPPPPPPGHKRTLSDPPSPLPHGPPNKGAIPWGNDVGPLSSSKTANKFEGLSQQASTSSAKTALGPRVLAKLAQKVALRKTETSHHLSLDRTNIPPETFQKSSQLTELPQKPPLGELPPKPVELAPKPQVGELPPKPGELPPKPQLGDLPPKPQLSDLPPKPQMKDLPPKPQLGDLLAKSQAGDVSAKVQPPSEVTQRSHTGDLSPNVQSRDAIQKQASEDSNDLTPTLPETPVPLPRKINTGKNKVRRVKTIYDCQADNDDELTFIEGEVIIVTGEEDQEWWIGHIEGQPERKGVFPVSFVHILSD
Chain of Arf-GAP with SH3 domain, ANK repeat and PH domain-containing protein 1 (Mus musculus), Q9QWY8-1 R811A;P910A;P913A (Q9QWY8 whole entry R811A/P910A/P913A, the tested form may be a part): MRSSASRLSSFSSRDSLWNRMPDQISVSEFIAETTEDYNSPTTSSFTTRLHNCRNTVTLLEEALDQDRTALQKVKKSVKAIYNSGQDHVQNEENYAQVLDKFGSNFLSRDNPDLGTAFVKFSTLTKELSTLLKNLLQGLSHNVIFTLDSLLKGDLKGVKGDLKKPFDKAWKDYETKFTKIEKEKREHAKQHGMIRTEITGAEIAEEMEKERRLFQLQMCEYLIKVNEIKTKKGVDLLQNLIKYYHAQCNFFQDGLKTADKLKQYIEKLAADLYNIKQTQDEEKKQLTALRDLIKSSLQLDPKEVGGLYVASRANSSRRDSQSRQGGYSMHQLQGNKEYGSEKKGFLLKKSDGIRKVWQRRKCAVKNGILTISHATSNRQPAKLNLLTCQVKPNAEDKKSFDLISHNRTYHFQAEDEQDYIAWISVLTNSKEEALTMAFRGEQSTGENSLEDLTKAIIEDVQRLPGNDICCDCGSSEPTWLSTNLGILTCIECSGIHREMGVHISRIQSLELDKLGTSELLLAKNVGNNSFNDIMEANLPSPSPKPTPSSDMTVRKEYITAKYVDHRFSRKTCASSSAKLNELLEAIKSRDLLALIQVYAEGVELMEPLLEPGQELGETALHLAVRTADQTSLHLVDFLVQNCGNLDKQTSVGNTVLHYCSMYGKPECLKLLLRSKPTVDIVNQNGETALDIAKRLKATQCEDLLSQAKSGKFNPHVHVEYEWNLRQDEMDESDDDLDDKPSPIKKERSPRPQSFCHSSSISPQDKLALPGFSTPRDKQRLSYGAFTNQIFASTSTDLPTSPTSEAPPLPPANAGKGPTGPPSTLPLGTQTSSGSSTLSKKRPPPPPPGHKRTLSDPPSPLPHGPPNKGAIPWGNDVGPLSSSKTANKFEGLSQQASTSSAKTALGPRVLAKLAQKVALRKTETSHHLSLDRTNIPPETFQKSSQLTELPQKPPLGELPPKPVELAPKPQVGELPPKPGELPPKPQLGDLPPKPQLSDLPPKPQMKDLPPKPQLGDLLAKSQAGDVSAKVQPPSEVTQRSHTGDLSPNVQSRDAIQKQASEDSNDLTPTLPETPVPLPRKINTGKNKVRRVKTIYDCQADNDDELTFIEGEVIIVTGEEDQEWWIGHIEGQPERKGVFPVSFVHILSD
Chain of Arf-GAP with SH3 domain, ANK repeat and PH domain-containing protein 1 (Mus musculus), Q9QWY8-2 R811A;P849A;P853A (Q9QWY8 other isoform, or with tags, fused parts or gaps R811A;P849A;P853A): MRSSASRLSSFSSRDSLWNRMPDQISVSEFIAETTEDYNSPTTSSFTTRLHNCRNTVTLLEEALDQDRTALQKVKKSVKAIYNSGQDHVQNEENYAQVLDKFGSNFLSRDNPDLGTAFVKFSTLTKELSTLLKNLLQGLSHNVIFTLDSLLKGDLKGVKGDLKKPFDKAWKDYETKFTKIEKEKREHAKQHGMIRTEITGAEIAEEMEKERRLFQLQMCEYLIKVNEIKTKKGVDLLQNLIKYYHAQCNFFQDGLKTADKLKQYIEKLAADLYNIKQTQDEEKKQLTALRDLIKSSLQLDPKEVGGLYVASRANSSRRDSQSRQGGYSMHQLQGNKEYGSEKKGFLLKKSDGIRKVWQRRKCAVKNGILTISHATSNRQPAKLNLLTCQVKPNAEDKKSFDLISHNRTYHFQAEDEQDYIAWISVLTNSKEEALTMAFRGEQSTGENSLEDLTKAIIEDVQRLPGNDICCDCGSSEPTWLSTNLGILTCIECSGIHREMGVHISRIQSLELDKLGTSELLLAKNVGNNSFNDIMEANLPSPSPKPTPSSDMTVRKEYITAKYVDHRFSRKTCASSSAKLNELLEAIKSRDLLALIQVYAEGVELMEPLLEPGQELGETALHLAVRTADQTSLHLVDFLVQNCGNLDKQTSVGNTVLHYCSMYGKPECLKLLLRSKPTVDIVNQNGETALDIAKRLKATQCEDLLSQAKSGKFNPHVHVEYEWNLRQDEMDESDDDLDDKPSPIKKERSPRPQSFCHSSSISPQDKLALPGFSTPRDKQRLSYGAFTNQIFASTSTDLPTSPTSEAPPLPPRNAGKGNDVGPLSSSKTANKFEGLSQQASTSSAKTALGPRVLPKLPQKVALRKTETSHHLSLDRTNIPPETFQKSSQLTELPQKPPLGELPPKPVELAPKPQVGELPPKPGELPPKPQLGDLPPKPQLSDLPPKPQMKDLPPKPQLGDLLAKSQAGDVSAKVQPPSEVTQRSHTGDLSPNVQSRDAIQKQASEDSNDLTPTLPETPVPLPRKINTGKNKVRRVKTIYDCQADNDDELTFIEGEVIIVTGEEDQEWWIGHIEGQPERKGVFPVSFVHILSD

With “Arf-GAP with SH3 domain, ANK repeat and PH domain-containing protein 1 (Mus musculus), Q9QWY8-1 R811A” the “effect of a mutation on the interaction” value (src_chick SRC [1]) was “decreasing interaction” and the “effect of a mutation on the interaction” value (crk_human CRK) was “decreasing interaction”.

With “Arf-GAP with SH3 domain, ANK repeat and PH domain-containing protein 1 (Mus musculus), Q9QWY8-1 P910A;P913A” the “effect of a mutation on the interaction” value (src_chick SRC [1]) was “decreasing interaction” and the “effect of a mutation on the interaction” value (crk_human CRK) was “decreasing interaction”.

With “Arf-GAP with SH3 domain, ANK repeat and PH domain-containing protein 1 (Mus musculus), Q9QWY8-2 R811A;P849A;P853A” the “effect of a mutation on the interaction” value (src_chick SRC [2]) was “disrupting interaction”.

In the case of “Arf-GAP with SH3 domain, ANK repeat and PH domain-containing protein 1 (Mus musculus), Q9QWY8-1 R811A;P910A;P913A”, the “effect of a mutation on the interaction” value (crk_human CRK) is reported as “disrupting interaction”.
